Read-outs that look alike come from different tables or passages of the source.
Key:
IL-6 signaling = IL-6 signaling (Homo sapiens, UniProt P05231); assay: IL-6 Bioassay (Promega), luciferase reporter cells, inhibition of IL-6-induced cell signaling; format: cell-based; details: peptides incubated with IL-6 for 10 min, IL-6 0.5 nM, cells 6 hours
Method: To verify the ability of the peptides of the invention to inhibit IL-6-signaling, they were tested with the IL-6 Bioassay Kit (Promega). This kit includes human cells engineered to express the IL-6 receptor and a luciferase reporter driven by a response element. When IL-6 binds, the IL-6R transduces intracellular signals resulting in luminescence (fluorescence). Inhibition of IL-6 interaction with the receptor leads to the decrease of the luciferase expression and lower fluorescence.
The selected peptides were incubated with IL-6 for 10 min before being added to cell culture medium. […] Peptides 27 (2), 38 (2) and 45 (2) were also tested.
The ability of peptides to inhibit IL-6 signaling pathway was tested with the IL-6 Bioassay from Promega (cat #JA2501). The bioluminescent signal is detected and quantified using Bio-Glo™ Luciferase Assay System. Different concentrations of the test peptides were mixed with IL-6 (0.5 nM) and added to the IL-6 Bioassay Cells according to the manufacturer's instructions. Cells were incubated for 6 hours in a humidified incubator at 37° C. and 5% CO2 concentration. Following incubation, 75 microliters of the Bio-Glo™ Reagent was added to the cell culture and the luminescence was measured with a Biotek Synergy HTX plate reader. Data was analyzed according to manufacturer's recommendations.

IL-6 = target: T1, IL-6 (Homo sapiens, UniProt P05231); assay: Biacore surface plasmon resonance binding of peptides to immobilised IL-6; details: Table 2, mutation combinations; N terminus acetylated, C terminus amidated; nd = not detected; read-out: KD (nM) P < 0.05
T1 construct: purchased R&D Systems BT7270B
Excerpt: Two DNA fragments were amplified from a synthetic fragment of the IL-6R. The 5′ fragment was amplified with forward primer and a mixture of 432 reverse primers, each containing an overhang of 6 codons. The 3′ fragment was amplified with a mixture of 432 forward primers, also containing overhangs of six degenerate codons and the reverse primer. Either the first or the second nucleotide of each codon was replaced with a degenerate base. Following PCR amplification, DNA fragments were phosphorylated and ligated leading to various sequence rearrangements shown at the bottom of the FIG. 3. Four hundred thirty-two forward and reverse oligos with an overhang of 6 codons from the IL-6R binding domain were used for PCR. A degenerate nucleotide was inserted at the first or second position of each codon. When ligated, these sequences generated a library of 1×10^13 different DNA sequences. The library of DNA sequences was taken through eight rounds of mRNA Display generating a peptide library. Eighteen of the most abundant peptides in the peptide library were synthesized in a linear form and tested for binding to IL-6 using Biacore. One of the peptides (#9) (“Peptide 9”) from the peptide library, with the sequence of […] The twelve non-terminal residues represent the PepFusion library-derived DNA sequences, while N-terminal serine and C-terminal glycine come from the flanking linkers and were kept as a precaution, in case linker sequences contributed to peptide interaction with its target.
Binding reactions were performed in HBS-P/2% DMSO buffer (10 mM Hepes, pH 7.4, 150 mM NaCl, 0.05% P-20, 2% DMSO), which was filtered through […] filters and degassed before use. Biotinylated recombinant human IL-6 (IL-6-Biotin) was bound to the surface of a Biacore SA sensor chip of a Biacore T200 surface plasmon resonance unit as follows. The streptavidin surface of the chip (flow cells 1 and 2) was activated by injecting 20 μl of 1 M NaCl/50 mM NaOH at 20 μl/min, in 3 pulses. Biotinylated Recombinant Human IL6 was diluted with HBS-P buffer and an aliquot of 100 μl (2 micrograms/ml) was injected into flow cell 2 at 5 microliters/min to yield a signal of 1400 response units (RU) (10 microliters were injected). Any remaining activated residues on the streptavidin surface of flow cells 1 and 2 were blocked with 30 microliters 500 nM free Biotin.
(§1) Affinity scouting assay was performed at a flow rate of 30 microliters/min at 25° C. The analyte (60 microliter aliquots of peptides, at concentrations of 20 μM in HBS-P/2% DMSO buffer) was injected into flow cells 1 and 2 and the association reaction was recorded. The surface was then washed with HBS-P/2% DMSO for 3 min and the dissociation of the analyte from the bound IL6 was followed over time. The surfaces of the flow cells were regenerated with 30 microliters of 10 mM NaOH, followed 50 microliters of HBS-P/2% DMSO buffer.
as §1, with “Kinetics analysis of binding was performed” for “Affinity scouting assay was performed”, “concentrations of 0, 1.25 μM, 2.5 μM, 5 μM, 10 μM and 20 μM” for “concentrations of 20 μM”, “DMSO buffer. Sensorgrams were analyzed using BIAeveluation 3.2.1 software (Cytiva). Values from the reference flow cell were subtracted to obtain the values for specific binding. Data were globally fitted to the Langmuir model for a 1:1 mass transfer binding.” for “DMSO buffer.”

[1] = target: T2, Biotinylated recombinant human IL-6 (human, UniProt P05231 30-212, biotinylated (sites not given)); assay: SPR (Biacore), IL-6 on chip
T2 construct: In the cell bioassay IL-6 (0.5 nM) was used in solution; also called Interleukin-6; IL-6-Biotin

[2] = target: T2, Biotinylated recombinant human IL-6; assay: cell-based or functional assay
[3] = target: T2, Biotinylated recombinant human IL-6; assay: SPR (Biacore), IL-6 on chip; remark: listed apart in the source

Chain of IL-6 signaling (P05231 30-212): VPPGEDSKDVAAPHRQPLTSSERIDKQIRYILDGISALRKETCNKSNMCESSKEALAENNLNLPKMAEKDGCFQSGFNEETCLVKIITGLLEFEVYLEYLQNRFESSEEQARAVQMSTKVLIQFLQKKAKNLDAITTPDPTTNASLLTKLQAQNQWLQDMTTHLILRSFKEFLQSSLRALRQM

Ac-SVRDLLRRMCHIVG-NH2 [9(2), SVRDLLRRMCHIVG]
IC50 (IL-6 signaling): 85 nM

Ac-SVRDLLRRMKVCVG-NH2 [27(2), SVRDLLRRMKVCVG]
IC50 (IL-6 signaling): 580 nM | Kd (IL-6): 580 ± 156 nM

Ac-TIRDLIRMMKVCVG-NH2 [Peptide 100, TIRDLIRMMKVCVG]
IC50 (IL-6 signaling): 16800 nM

B1: Peptide 9 (2) (peptide)
peptide: Ac-SVRDLLRRMCHIVG-NH2
notes: peptide 9 with protected termini
Kd [1]: 300 nM | IC50, inhibition of IL-6-induced cell signaling (IL-6 Bioassay, luciferase reporter cells) [2]: 85.4 nM | Kd [3]: 354 nM

B2: Peptide 100 (peptide)
peptide: Ac-TIRDLIRMMKVCVG-NH2
Kd [1]: 50 nM | IC50, inhibition of IL-6-induced cell signaling (IL-6 Bioassay, luciferase reporter cells) [2]: 16800 nM | Kd [3]: 59 nM

B3: Peptide 90 (peptide)
peptide: Ac-SFRDLIRMMKVCVG-NH2
Kd [1]: 30 nM | IC50, inhibition of IL-6-induced cell signaling (IL-6 Bioassay, luciferase reporter cells) [2]: 1200 nM | Kd [3]: 42 nM
